In publication PMC4228062:

Target: recombinant galectin-7 R74S (human)
Test: native gel or EMSA; recombinant gal-7 (wild type or R74S) on a native gel, detected by immunoblot; monomeric and dimeric forms

stoichiometry N: 2
Substance: recombinant galectin-7 R74S (natural protein)
